{"source": "paper PMC7550704", "about": "(Molecular Biology of the Cell, 2020)", "binders": {"B1": {"name": "GST-Borealin-2^216–296 (domain or fragment)", "chain": "not shown"}}, "target": "T1, Sgo1^1–150-His6-MBP (X. laevis, UniProt Q4KLP8 1-150)", "T1 sequence (looked up)": "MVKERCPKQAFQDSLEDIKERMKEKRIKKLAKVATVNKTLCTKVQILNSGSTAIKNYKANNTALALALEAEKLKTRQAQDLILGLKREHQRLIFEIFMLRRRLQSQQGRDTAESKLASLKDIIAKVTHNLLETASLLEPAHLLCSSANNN", "experiment": "supernatant depletion", "data": [{"binder": "B1", "values": [{"measurement": "Kd", "value": "10 ± 1.6", "unit": "µM"}]}]}
